From article PMC9708728

Target: SARS-CoV-2 RBD (R319-F541) with a C-terminal His tag (SARS-CoV-2) (UniProt P0DTC2)
Assay: SEC + other: non-reducing SDS-PAGE

Substance: SARS-CoV-2 RBD (R319-F541) with a C-terminal His tag (from UniProt P0DTC2 319-541) (domain or fragment)
- percent dimer: 30%
- stoichiometry N: 2
